Positions count from the first letter of the chain named.
T1: MdNAC104 (Malus domestica (apple)?, UniProt D9ZJ88 1-204)
T1 sequence: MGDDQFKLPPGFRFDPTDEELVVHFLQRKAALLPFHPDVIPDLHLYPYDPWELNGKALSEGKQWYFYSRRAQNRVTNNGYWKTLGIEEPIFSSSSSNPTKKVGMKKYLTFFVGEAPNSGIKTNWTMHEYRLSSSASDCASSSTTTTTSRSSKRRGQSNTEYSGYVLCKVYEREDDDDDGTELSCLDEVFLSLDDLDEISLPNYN

B1: MdGAD1 mutant probe 1 (dsDNA)
DNA 1: GCGCTGCACCTAAAAATTCCATTTCTGGAC
DNA 2: GTCCAGAAATGGAATTTTTAGGTGCAGCGC
B2: MdGAD1 mutant probe 2 (dsDNA)
DNA 1: CAAACCATTTGCAAAATCCTTAAAGCGATT
DNA 2: AATCGCTTTAAGGATTTTGCAAATGGTTTG
B3: MdGAD1 mutant probe 3 (dsDNA)
DNA 1: AAAAAATGGGGCAAAATGGGCTTCACTGTC
DNA 2: GACAGTGAAGCCCATTTTGCCCCATTTTTT
B4: MdGAD1 probe 1 (dsDNA)
DNA 1: B1 DNA 1 with A13C, A15C, A16G
DNA 2: B1 DNA 2 with T15C, T16G, T18G
B5: MdGAD1 probe 2 (dsDNA)
DNA 1: B2 DNA 1 with A13C, A15C, A16G
DNA 2: B2 DNA 2 with T15C, T16G, T18G
B6: MdGAD1 probe 3 (dsDNA)
DNA 1: B3 DNA 1 with A13C, A15C, A16G
DNA 2: B3 DNA 2 with T15C, T16G, T18G
B7: MdALMT13 probe 3 (dsDNA)
DNA 1: CTTTTGCATTCAGCACGCACTCGCAAAACC
DNA 2: GGTTTTGCGAGTGCGTGCTGAATGCAAAAG
B8: MdALMT13 probe 4 (dsDNA)
DNA 1: ATGTATATATAAACACGATATCTCCCTTCC
DNA 2: GGAAGGGAGATATCGTGTTTATATATACAT
B9: MdALMT13 probe 2 (dsDNA)
DNA 1: CTTATTTCAAAAACACGGGTGAACAGTAAA
DNA 2: TTTACTGTTCACCCGTGTTTTTGAAATAAG

Target: T1, MdNAC104
Assay: EMSA; LightShift Chemiluminescent EMSA Kit (Thermo) per manufacturer; buffer, salt, pH and temperature not stated
Settings: protein: recombinant; tags: His (pET-32a vector); blunt

Does B1 bind?
Result: no binding

Does B2 bind?
Result: no binding

Does B3 bind?
Result: no binding

Same assay, conditions: protein: recombinant; tags: His (pET-32a vector); label: 5' biotin; blunt

Does B4 bind?
Result: binds

Does B5 bind?
Result: binds

Does B6 bind?
Result: binds

Does B7 bind?
Result: binds

Does B8 bind?
Result: binds

Does B9 bind?
Result: binds
